According to doi:10.1101/2023.02.23.529735 (bioRxiv, 2023):

B1: H-NS86-VC (H-NS amino acids 1-86 fused at the C-terminus to the mVenus-mCherry VC domain) (domain or fragment, E. coli, UniProt P0ACF8 1-86, looked up)
chain: MVSEALKILNNIRTLRAQARECTLETLEEMLEKLEVVVNERREEESAAAAEVEERTRKLQQYREMLIADGIDPNELLNSLAAVKSGT
B2: H-NS64-VC (H-NS amino acids 1-64 fused at the C-terminus to the mVenus-mCherry VC domain) (domain or fragment, E. coli, UniProt P0ACF8 1-64, looked up)
chain: MVSEALKILNNIRTLRAQARECTLETLEEMLEKLEVVVNERREEESAAAAEVEERTRKLQQYREM
B3: H-NS-VC (Histone-like Nucleoid Structuring protein H-NS fused at its C-terminus to the mVenus-mCherry VC domain) (natural protein, E. coli, UniProt P0ACF8 1-137, looked up)
chain: MGSEALKILNNIRTLRAQARECTLETLEEMLEKLEVVVNERREEESAAAAEVEERTRKLQQYREMLIADGIDPNELLNSLAAVKSGTKAKRAQRPAKYSYVDENGETKTWTGQGRTPAVIKKAMDEQGKSLDDFLIKQ

Key:
FRET or BRET [1] = biological target: the molecule itself; test: FRET or BRET
FRET or BRET [2] = biological target: the molecule itself; test: FRET or BRET; remark: listed apart in the source

| Protein | FRET/Donor ratio, exponentially growing cells (FRET or BRET [1]) | FRET ratio (acceptor/donor) in foci, no additive (FRET or BRET [2]) | FRET ratio (acceptor/donor) in the solution outside the foci, no additive (FRET or BRET [2]) | FRET/Donor ratio, after a 6 min heat shock at 42 °C (FRET or BRET [1]) | FRET/Donor ratio, spheroplasts returned from 880 mOsm to 220 mOsm (FRET or BRET [1]) |
| --- | --- | --- | --- | --- | --- |
| B1 | 0.132 | 0.073 | 0.068 | – | – |
| B2 | 0.126 | – | – | – | – |
| B3 | 0.105 | 0.07 | 0.082 | 0.162 | 0.181 |
